Results taken from patent US20230398228A1, “ERIBULIN-BASED ANTIBODY-DRUG CONJUGATES AND METHODS OF USE” (EISAI R&D MANAGEMENT CO., LTD., priority 2016, published 2023).
Where two headings read alike, the source gives them in different places.

Columns and labels:
[1] = tested on: CaOV3 cells; assay: Crystal Violet cytotoxicity assay (Example 1), CaOV3; type: cell-based, human
Protocol: Typically, test reagents were serial diluted 1:4 in 2 mL deep-well dilution plates, starting at 1 μM (10 dilutions total). 100 μL of diluted samples were added to the cell plates (starting concentration of test samples at 500 nM). […] Medium was discarded, plates were washed once with 200 μL DPBS, stained with 50 μL of 0.2% Crystal Violet solution at room temperature for 15 min, and then washed extensively with tap water. Plates were air-dried, and Crystal Violet was dissolved with 200 μL of 1% SDS solution. Plates were read at 570 nm. […] Assays were performed using a seeding density of 1,000 cells per well and compound exposure was for a total of 5 days. When shorter-term exposure was desired, medium containing cytotoxic agents was removed after 4 hours and replaced with fresh growth medium prior to 5-day incubation. For OVCAR3, CaOV3, and NCI-H2110, cells were seeded at 3,000 cells/well and incubated for 5 days with ADC.
Screening of selected ADCs was also performed in CaOV3 (human ovarian carcinoma, FR^med(++), NCI-H2110 (human non-small cell lung carcinoma, FR^med(++), and/or OVCAR3 (human ovarian carcinoma, FR^med(++)) cells. The results of this screening are provided in Table 16.

[2] = tested on: NCI-H2110 cells; conditions: Example 1
Protocol: Typically, test reagents were serial diluted 1:4 in 2 mL deep-well dilution plates, starting at 1 μM (10 dilutions total). 100 μL of diluted samples were added to the cell plates (starting concentration of test samples at 500 nM). […] Medium was discarded, plates were washed once with 200 μL DPBS, stained with 50 μL of 0.2% Crystal Violet solution at room temperature for 15 min, and then washed extensively with tap water. Plates were air-dried, and Crystal Violet was dissolved with 200 μL of 1% SDS solution. Plates were read at 570 nm. Data was analyzed using GraphPad Prism 6. Assays were performed using a seeding density of 1,000 cells per well and compound exposure was for a total of 5 days. When shorter-term exposure was desired, medium containing cytotoxic agents was removed after 4 hours and replaced with fresh growth medium prior to 5-day incubation. For OVCAR3, CaOV3, and NCI-H2110, cells were seeded at 3,000 cells/well and incubated for 5 days with ADC.
SJSA-1 cells are a human osteosarcoma tumor cell line that are negative for folate receptor alpha.
Typically, test reagents were serially-diluted 1:4 in 2 mL deep-well dilution plates, starting at 1 μM (10 dilutions total). 100 μL of diluted samples were added to the cell plates (starting concentration of test samples at 100 nM). […] Medium was discarded, plates were washed once with 200 μL DPBS, stained with 50 μL of 0.2% Crystal Violet solution at room temperature for 15 min, and then washed extensively with tap water. Plates were air-dried, and Crystal Violet was dissolved with 200 μL of 1% SDS solution. Plates were read at 570 nm. Data was analyzed using GraphPad Prism 6.

[3] = tested on: Endo-10590 endometrial cancer patient-derived xenograft; assay: Endometrial cancer PDx model Endo-10590
Protocol: Tumor fragments were implanted subcutaneously into the left flank of 40 NMRI nu/nu female mice, and tumor volume was monitored. Mice with a tumor volume of 100-160 mm^3 were randomized into one of four groups (Groups A-D, Table 39). […] Each group consisted of 8 animals. The day of randomization was designated as Day 0 of the experiment.
Tumor growth was evaluated by the measurement of two perpendicular diameters twice weekly, and tumor volume (TV), relative tumor volume (RTV) and treated/control (T/C) values were calculated. Body weight was also evaluated twice weekly as a parameter for toxicity, with the calculation of the body weight per group and body weight changes (BWC) relative to the start of treatment. Animals were sacrificed when the individual tumor volume exceeded 1 cm^3, or at the end of the study.

[4] = SEC-HPLC aggregation analysis; type: physicochemical
Protocol: The antibody aggregation was analyzed by size-exclusion, high-performance liquid chromatography (SEC-HPLC) using an Agilent 1100. The mAb was diluted to 1 mg/mL in DPBS. The antibody (20 μL) was injected onto a TSKgel® SuperSW guard column (4.6 mm×3.5 cm, 4 μm pore size, Tosoh Bioscience), followed by a TSKgel® SuperSW3000 column (4.6 mm×30 cm, 4 μm pore size), eluted from the column with 0.1 M sodium phosphate containing 0.15 M NaCl and 0.05% NaN3, at pH 7.4, at a flow rate of 0.3 mL/min for 20 min. All data were analyzed using Agilent ChemStation software. Percent aggregation was calculated as [PAaggregate/PAtotal]*100, where PA=integrated peak area.
ADC was diluted to 1 mg/mL in DPBS. ADC (10 μL) was then injected onto an Advanced SEC 300A guard column (4.6 mm×3.5 cm, 2.7 μm pore size, Agilent), followed by a AdvancedBio 300A column (4.6 mm×30 cm, 2.7 μm pore size). ADC was eluted from the column with 0.1 M sodium phosphate containing 0.15 M NaCl and 5% IPA, pH 7.4 at a flow rate of 0.25 mL/min for 28 min. All data were analyzed using Agilent ChemStation software. Percent aggregation was calculated as [PAaggregate/PAtotal]*100, where PA=integrated peak area.

[5] = DAR analysis by HIC-HPLC
Protocol: Samples were injected onto a TSKgel® Ether-5 PW, 7.5 mm ID×7.5 cm, 10 μM pore size, and eluted from the column with a 3 min equilibration in 100% of mobile phase A, a 15 min gradient (0-100% B), a 5 min hold in 100% B, a 1 min change to 100% A, and a 5 min re-equilibration in 100% of mobile phase A, at 0.7 mL/min. Mobile phase A was 25 mM sodium phosphate, 1.5 M ammonium sulfate, pH 7.0. Mobile phase B was 25 mM sodium phosphate, 25% isopropanol, pH 7.0. Detection was done at 280 nm (reference 320 nm). DAR was determined by the formula:
[AUC+1+2(AUC+2)+3(AUC+3)+ . . . n(AUC+n)]/ΣAUCtot]
where AUC+1 is the area under the curve for the mAb peak corresponding to ADC conjugated with one cytotoxin, AUC+2 is the area under the curve for the mAb peak corresponding to ADC conjugated with two cytotoxins, etc. ΣAUCtot is the combined area under the curve for all peaks.
DAR was analyzed using hydrophobic interaction HPLC (HIC-HPLC). Samples were injected onto a TSKgel® Butyl-NP5, 4.6 mm ID×3.5 cm, 2.5 μM nonporous size column (Tosoh Bioscience), and eluted with a 3 min equilibration in 100% of mobile phase A, a 15 min gradient (0-100% B), a 5 min hold in 100% B, a 1 min change to 100% A, and a 5 min re-equilibration in 100% of mobile phase A, at 0.7 mL/min. Mobile phase A was 25 mM sodium phosphate, 1.5 M ammonium sulfate, pH 7.0. […] DAR was determined by the formula: […]

[6] = tested on: IGROV1 cells; assay: Crystal Violet cytotoxicity assay (Example 4), IGROV1; type: cell-based, human; conditions: mean of replicate experiments, read-out: Cytotoxicity IC50 (nM), IGROV1 (FR^hi, MSLN^neg)
Protocol: (§1) Test reagents were serial diluted 1:3 in 2 mL deep-well dilution plates, starting at 200 nM (10 dilutions total). […] Medium was then discarded. […] Plates were read at 570 nm. Data was analyzed using GraphPad Prism 6.

[7] = tested on: NCI-H2110 cells; assay: Crystal Violet cytotoxicity assay (Example 4), NCI-H2110; type: cell-based, human; conditions: mean of replicate experiments, read-out: Cytotoxicity IC50 (nM), NCI-H2110 (FR^med, MSLN^med)
Protocol: as §1

Row | Substance | IC50 ([1]; CaOV3 cells, mean of replicate experiments, where performed) [nM] | cytotoxicity on CaOV3 cells, in words ([1]; Example 1) | cytotoxicity on NCI-H2110 cells, in words [2] | IC50 ([2]; read-out: IC50 on NCI-H2110) [nM] | tumor re-growth during the study, in words ([3]; MORAb-202 5 mg/kg or eribulin 3.2 mg/kg) | anti-tumor activity, in words ([3]; MORAb-202 5 mg/kg or eribulin 3.2 mg/kg, single i.v. dose) | effect on body weight, in words ([3]; first week post-treatment) | SEC-HPLC Analysis % Aggr. [4] [%] | SEC-HPLC Analysis % Frag. [4] [%] | SEC-HPLC Analysis % Monomer [4] [%] | DAR (HIC-HPLC) [5] | IC50 [6] [nM] | IC50 [7] [nM]
1 | MORAb-003-maleimido-PEG2-Val-Cit-pAB-eribulin [MORAb-202] | 3.7 | potent cytotoxicity | potent cytotoxicity | 0.73 | no significant tumor re-growth | significant anti-tumor activity | no body weight loss |  |  |  |  |  | 
2 | MORAb009-PEG2-eribulin |  |  |  |  |  |  |  | 1.15 | 1.74 | 97.11 | 4.30 | 42.8 | 50
3 | MORAb009-PEG4-eribulin |  |  |  |  |  |  |  | 1.03 | 1.84 | 97.13 | 4.57 | 76.3 | 31.6
